The results in this text go back to patent US20250333515A1 (VOR BIOPHARMA, published 2025).

Experiment [1] has as its target T1, biotinylated recombinant CLL-1 protein (UniProt Q5QGZ9 65-265, limits assumed, biotinylated (site not stated)).
T1 construct: also called CLEC12A
T1 sequence (looked up): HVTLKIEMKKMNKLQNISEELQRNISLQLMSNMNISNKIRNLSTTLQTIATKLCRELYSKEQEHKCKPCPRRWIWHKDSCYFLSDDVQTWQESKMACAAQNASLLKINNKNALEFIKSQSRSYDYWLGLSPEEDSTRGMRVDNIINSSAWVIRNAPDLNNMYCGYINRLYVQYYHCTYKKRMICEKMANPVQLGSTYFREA
Nature of the experiment: ELISA; biotinylated CLL-1 on neutravidin plate, FLAG-tagged binder, anti-FLAG HRP. As to the method: Dose-depending binding activities were analyzed by ELISA. COSTAR® microtiter plates were coated with 1 μg/mL neutravidin protein. Following washing, neutravidin-coated wells were seeded with 100 nM of biotinylated recombinant CLL-1 protein. Following washing, purified FLAG-tagged CLL-1 antibody binders were added to the wells and subsequently detected by mouse anti-FLAG tag HRP conjugate (Sigma).

For experiment [2], the target named is T2, CLL-1 on the surface of CLL-1-positive AML cell lines (HL-60 WT, U937) (human, UniProt Q5QGZ9 1-265).
T2 construct: whole, on cells; also called HL-60 WT cells; U937 cells
T2 sequence (looked up): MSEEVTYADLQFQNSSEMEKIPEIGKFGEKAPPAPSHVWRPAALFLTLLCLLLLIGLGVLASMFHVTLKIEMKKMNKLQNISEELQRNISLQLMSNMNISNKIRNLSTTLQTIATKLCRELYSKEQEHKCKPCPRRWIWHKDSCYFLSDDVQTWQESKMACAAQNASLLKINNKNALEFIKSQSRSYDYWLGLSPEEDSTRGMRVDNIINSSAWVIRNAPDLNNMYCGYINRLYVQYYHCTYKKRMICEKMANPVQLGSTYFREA
Briefly: multi-point flow cytometry on HL-60 WT cells, FLAG-tagged binder, anti-FLAG AlexaFluor 488. The protocol: Target cell staining was assessed relative to control samples comprising cells stained with secondary antibodies only (see FIG. 6). Multi-point FACS via flow cytometry was performed to assess dose-depending binding of CLL-1 antibody binders to the cell surface of HL-60 WT cells. Un-fixed, un-permeabilized cells were incubated with various concentrations of purified FLAG-tagged anti-CLL-1 antibody clones and cell-surface binding was detected by subsequent incubation in the presence of rabbit anti-FLAG tag antibody AlexaFluor 488-conjugate antibody (R&D Systems).
(Flow cytometry measures light scatter and fluorescence of single cells or particles in a stream.)

The target in experiment [3] is T2, CLL-1 on the surface of CLL-1-positive …. Nature of the experiment: flow cytometry, U937, 200 nM; last table names out of step. The protocol: (§1) HL60 WT, U937, or HL-60 CLL-1 knockout (KO) control cells were counted, washed in PBS and mixed with 1 ml of Fixable Viability dye eFluor 780 (diluted at 1:1000 in PBS) then incubated at room temperature for 10 minutes to distinguish Live/Dead cells. Subsequently the cells were washed once with FACS Buffer (PBS with 2% FBS) and incubated with human TruStain FcX™ (Fc block diluted at 1:10 in FACS buffer) at room temperature for 5 minutes. Fc blocked cells were stained with 50 μL of the primary CLL-1 antibody (at 200 nM concentrations) and incubated at 4° C. for 30 minutes in the dark. Cells were subsequently stained with 100 μL of secondary antibody (AF488 Rabbit anti-FLAG-tag diluted at 1:1000) incubated at 4° C. for 30 minutes in the dark. Cells were washed and flow cytometric analysis was performed using flow cytometry and data analysis was performed using FlowJo.

For experiment [4] the target is unchanged. Nature of the experiment: flow cytometry, HL-60 WT, 200 nM; secondary only 5600. The protocol:
as §1

As a reminder, the EC50 is the concentration needed to bring the measured effect to its halfway point.

B1: Anti-CLL-1 Binder Clone 12 (scFv)
scFv: DIQMTQSPSSLSASVGDRVTITCQASQDISNYLNWYQQKPGKAPKLLIYDASNLETGVPSRFSGSGSGTDFTLTISSPQPEDLATYYCQQANSFPFTFGQGTKVEIKGGGGSGGGGSGGGGSQVQLVQSGAEVKKPGSSVKVSCKASGYSFTRNDITWVRQANGRGLEWLGRLNPNNGDTVYAEVFQGRVAMTRDTSTDTAYMELASLKSDDTAVYFCARGFWSFDVWGQGTMVTVSS
notes: scFv (VL-linker-VH); not shown: FLAG tag
On to B1, for which the EC50 came to 3.7 nM in experiment [1] and 0.2 nM in experiment [2]. The “Geometric Mean : B530-H” value in experiment [3] came out at 59600; in experiment [4], 11800.

B2: Anti-CLL-1 Binder Clone 20 (VHH)
VHH: QVQLVQSGGGLVQPGGSLRLSCAASDFSFSYYEMSWVRQAPGKGLEWVSTISGSGDSTYYADSVKGRFTISRDNTKNTLYLQMNTLRAEDTATYYCMTDGETWGTHRYTVYWGQGALVTVSS
notes: also called 20 VH; VH clone 20; not shown: FLAG tag
Take B2: the EC50 in experiment [1] worked out at 4.7 nM. The “Geometric Mean : B530-H” value came to 27000 in experiment [3] and 9110 in experiment [4].

B3: Anti-CLL-1 Binder Clone 42 (scFv)
scFv: EIVLTQSPATLSLSPGERATLSCRASQSVSSYLAWYQQKPGQAPRLLIYDASNRATGIPDRFSGSGSGTDFTLTISRLEPEDFAVYYCQQYGSSPVTFGQGTKLEIKGGGGSGGGGSGGGGSQVQLVQSGAEVKKPGSSVKVSCKASGGTFSSYAISWVRQAPGQGLEWMGGIIPIFGTANYAQKFQGRVIMTTDTSTSTAHMELRSLRSDDTAVYYCARDADEFGAFDIWGQGTTVTVSS
notes: as for B1
Regarding B3, the EC50 in experiment [1] is 1.5 nM; in experiment [2], 2.2 nM. For the same molecule, the “Geometric Mean : B530-H” value turned out to be 29000 in experiment [3] and 10400 in experiment [4].

B4: Anti-CLL-1 Binder Clone 11 (scFv)
scFv: QSVLTQPASVSGSPGQSITISCTGTSSDVGASNSVSWYQRHPGKPPKLMIYDVSNRPSGISNRFSGSKSGNTASLTISGLQSEDEADYYCSSYTGSSTFVVFGGGTQLIILGGGGSGGGGSGGGGSEVQLVESGGGVVQPGGSLRLSCAASGFTFSSYWMSWVRQAPGKGLEWVANIRQDGSEKYYVDSVKGRFTISRDNAKNSLYLQMNSLRAEDAAVYYCAREQDTAMVAFDYWGQGTLVTVSS
notes: as for B1
B4: the EC50 in experiment [1] stood at 1.4 nM; in experiment [2] it was 0.2 nM. Further, the “Geometric Mean : B530-H” value was found to be 60200 in experiment [3] and 20500 in experiment [4].

B5: Anti-CLL-1 Binder Clone 40 (scFv)
scFv: QSVLTQPPSVSAAPGQKVTISCSGSSSNIGNNYVSWYQQLPGTAPKLLIYDNNKRPSGIPDRFSGSESGTSATLGITGLQTGDEADYYCGTWDSSLSAWVFGGGTQLIILGGGGSGGGGSGGGGSQVQLQQSGPGLVKPSQTLSLTCAISGDSVSSNSAAWNWIRQSPSRGLEWLGRTHYRSKWYNDYAVSVKSRITISADTSKNQFSLQLNSVTPEDTAVYYCARDRYTVRPDAFDIWGQGTTVTVSS
notes: as for B1
In the case of B5, the EC50 is 0.5 nM in experiment [1] and 11.4 nM in experiment [2]. Also, the “Geometric Mean : B530-H” value in experiment [4] came out at 23100.

B6: Anti-CLL-1 Binder Clone 10 (scFv)
scFv: DIQMTQSPSFLSASVGDRVTITCRASQGISSYLAWYQQKPGKAPKLLIYSASSLQSGVPSRFSGSGSGTDFTLTISSLQPEDFATYYCQQSYNSPTFGQGTRLEIKGGGGSGGGGSGGGGSQVQLVQSGAEVKKPGASVKVSCKASGYTFTGYYMHWVRQAPGQGLEWMGWMNPNSGNTGYAQKFQGRVTMTRNTSISTAYLELTSLTSDDTAVYYCARGDTGDFFDHWGQGTLVTVSS
notes: as for B1
On to B6, for which the EC50 in experiment [1] amounted to 1.1 nM; in experiment [2] it was 0.2 nM. Moreover, the “Geometric Mean : B530-H” value was determined as 52100 in experiment [3] and 24900 in experiment [4].

B7: Anti-CLL-1 Binder Clone 6 (scFv)
scFv: QSVLTQPPSVSAAPGQKVSIFCSGGSSNIGKNYVSWYQQLPGTAPKLLIYENQHRPSGIPDRFSGSKSGTSATLGITGLQTGDEADYYCATWDDSLSAGVFGGGTELTVLGGGGSGGGGSGGGGSQLVQSGAEVRKPGESLKISCKGSGYSFTSYWIGWVRQMPGKGLEWMGFIYPGDSDTRYSPSFQGQVTISADKSISTAYLQRSSLKASDTAMYYCARLGGYSGYDSEVFYLDYWGQGTTVTVSS
notes: as for B1
On to B7, for which the EC50 in experiment [1] came to 0.9 nM; in experiment [2] it was 59 nM. Moreover, the “Geometric Mean : B530-H” value in experiment [3] is 34300; in experiment [4], 9390.

B8: Anti-CLL-1 Binder Clone 1 (scFv)
scFv: SYVLTQPPSVSVAPGQTARITCGGNNIGSKSVHWYQQKPGQAPVLVVYDDSDRPSGIPERFSGSNSGNTATLTISRVEAGDEADYYCQVWDSSSDHPVFGGGTQLIILGGGGSGGGGSGGGGSQVQLVQSGAEVKKPGSSVKVSCKASGGTFSSYAISWVRQAPGQGLEWMGRIIPILGIANYAQKFQGRVTITADESTSTAYMELSSLRSEDTAVYYCAREKDDILTGAYYYGMDVWGQGTTVTVSS
notes: scFv (VL-linker-VH) from a fully human scFv phage library; not shown: FLAG tag
Regarding B8, the values for the EC50 in experiment [1] and in experiment [2] were 3.4 nM and 3.2 nM, respectively. For the same molecule, the entries for the “Geometric Mean : B530-H” value in experiment [3] and in experiment [4] were 46300 and 18100, respectively.

B9: Anti-CLL-1 Binder Clone 2 (scFv)
scFv: QSVLTQPLSVSVALGQTARITCGGNNIGSKNVHWYQQKAGQAPVLVIQRDSNRPSGIPERFSGSNSGNTATLTISRAQAGDEADYFCQVWDSNTYVFGTGTKLTVLGGGGSGGGGSGGGGSEVQLVESGGGLVKPGGSLRLSCAASGFTFSDYYMSWIRQAPGKGLEWVSYISSSGSTIYYADSVKGRFTISRDNAKNSLYLQMNSLRDEDTAVYYCARQSAEIVGAFDHWGQGTMVTVSS
notes: as for B1
As to B9, the EC50 worked out at 0.9 nM in experiment [1] and 1.8 nM in experiment [2]. The figures for the “Geometric Mean : B530-H” value in experiment [3] and in experiment [4] were 50800 and 11100, respectively.

B10: Anti-CLL-1 Binder Clone 4 (scFv)
scFv: QSVVTQPPSVSAAPGQKVTISCSGSSPNIGKNYVSWYQQLPGTAPKLLIYDNNKRPSGIPDRFSGSKSGTSATLGITGLQTGDEADYYCGTWDSSLSGYVFGTGTKVTVLGGGGSGGGGSGGGGSQVQLVESGGGVVQPGRSLRLSCAASGFTFSSYGMHWVRQAPGKGLEWVAFISHDGSNKYYADSVKGRSTISRDNSKSTLFLQMNSLRDEDTAVYFCAREGQLTTSWDFFDYWGHGTLVTVSS
notes: as for B1
Consider B10, for which the figures for the EC50 in experiment [1] and in experiment [2] were 1.4 nM and 6.4 nM, respectively. Besides, the “Geometric Mean : B530-H” value in experiment [3] was 33600; in experiment [4], 11600.

B11: Anti-CLL-1 Binder Clone 38 (scFv)
scFv: DIQMTQSPSTLSASVGDRVTITCRASQSISSWLAWYQQKPGKAPKLLIYTASSLQSGVPSRFSGSESGTDFTLTISSLQPEDFATYYCQQSYSTPLTFGGGTKVDIKGGGGSGGGGSGGGGSQVQLVQSGAEVKKPGASVKVSCKASGYTFTGYYMHWVRQAPGQGLEWMGWINPNSGGTNYAQKFQGRVTLTRDTSITTAYLELTSLTSDDTAVYYCARGDTGDFFDHWGQGTLVTVSS
notes: as for B1
B11: the values for the EC50 in experiment [1] and in experiment [2] were 0.6 nM and 1.6 nM, respectively. The “Geometric Mean : B530-H” value in experiment [3] is 55300; in experiment [4], 19800.
